# Data from US20170224799A1 (UNIVERSITY OF CONNECTICUT, published 2017).
# T1: H-2 D^d (mouse, UniProt P01900 25-311, limits assumed)
# T1 construct: construct not described
# T1 sequence (MHC heavy, looked up): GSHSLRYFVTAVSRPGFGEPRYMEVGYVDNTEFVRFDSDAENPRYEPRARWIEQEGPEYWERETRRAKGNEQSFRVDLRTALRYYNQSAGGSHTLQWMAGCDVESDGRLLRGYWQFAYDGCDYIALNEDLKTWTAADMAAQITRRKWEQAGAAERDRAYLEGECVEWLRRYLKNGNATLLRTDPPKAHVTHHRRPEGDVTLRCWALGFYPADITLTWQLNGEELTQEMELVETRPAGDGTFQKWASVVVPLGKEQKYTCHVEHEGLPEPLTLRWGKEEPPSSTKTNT
# T2: H-2 L^d (mouse, UniProt P01897 25-309, limits assumed)
# T2 construct: construct not described
# T2 sequence (MHC heavy, looked up): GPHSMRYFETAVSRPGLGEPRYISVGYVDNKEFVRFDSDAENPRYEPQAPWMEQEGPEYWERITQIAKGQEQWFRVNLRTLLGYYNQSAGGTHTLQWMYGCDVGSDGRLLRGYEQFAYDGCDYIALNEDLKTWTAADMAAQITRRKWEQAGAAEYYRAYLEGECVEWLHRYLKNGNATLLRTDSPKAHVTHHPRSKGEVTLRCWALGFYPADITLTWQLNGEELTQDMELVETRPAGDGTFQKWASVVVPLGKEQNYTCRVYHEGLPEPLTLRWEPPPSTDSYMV
# Biological target: T1, H-2 D^d
# Assay: direct peptide-binding studies
row,Binder,binding result
1,QVFPGLMEL [Atxn10.1 Mut peptide QVFPGLMEL],no binding
2,DYVPMEQPR [Alkbh6.2 Mut peptide DYVPMEQPR],no binding

# Now from value to binder:
row,binding result,Binder
1,no binding,VFPGLMEL [Atxn10.2 Mut peptide VFPGLMEL]
2,no binding,GFHGCIHEVL [Slit3 Mut peptide GFHGCIHEVL]
3,no binding,ELQGLLEDEL [Ccdc136 Mut peptide ELQGLLEDEL]
4,no binding,ALKSEEKTL [Stau1.4 Mut peptide ALKSEEKTL]

# Biological target: T2, H-2 L^d
# Assay: direct peptide-binding studies
row,Binder,binding result
1,QVFPGLMEL [Atxn10.1 Mut peptide QVFPGLMEL],no binding
2,DYVPMEQPR [Alkbh6.2 Mut peptide DYVPMEQPR],no binding

# The remaining lines, values ahead:
row,binding result,Binder
1,no binding,VFPGLMEL [Atxn10.2 Mut peptide VFPGLMEL]
2,no binding,GFHGCIHEVL [Slit3 Mut peptide GFHGCIHEVL]
3,no binding,ELQGLLEDEL [Ccdc136 Mut peptide ELQGLLEDEL]
4,no binding,ALKSEEKTL [Stau1.4 Mut peptide ALKSEEKTL]

# Biological target: H-2 K^d (mouse, UniProt P01902 22-305)
# Assay: competition with radiolabeled standard peptide, purified H-2 K^d
# Sequence of H-2 K^d (P01902 22-305): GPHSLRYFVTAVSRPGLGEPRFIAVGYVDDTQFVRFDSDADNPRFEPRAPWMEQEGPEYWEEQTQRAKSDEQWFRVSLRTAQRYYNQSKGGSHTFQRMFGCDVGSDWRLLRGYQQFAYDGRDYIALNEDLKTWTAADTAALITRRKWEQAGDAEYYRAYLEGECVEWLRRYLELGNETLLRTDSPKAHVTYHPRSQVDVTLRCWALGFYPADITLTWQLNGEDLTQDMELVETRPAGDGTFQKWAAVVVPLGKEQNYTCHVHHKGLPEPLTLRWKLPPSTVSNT
row,Binder,IC50 [nM]
1,LDMLQALCIP [Tnpo3.3 WT peptide LDMLQALCIP],111
2,LDMLQALC [Tnpo3.4 WT peptide LDMLQALC],89
3,SYMLQALCIP [Tnpo3.3 Mut peptide SYMLQALCIP],67

# Other lines, results leading:
row,IC50 [nM],Binder
1,14900,SYMLQALC [Tnpo3.4 Mut peptide SYMLQALC]
2,10000,EYLDLQTQG [Zfp236.2 Mut peptide EYLDLQTQG]
